For 1 substance, Kd results are on record in PMC10592355.

The subject of one data set is TyrRS WT (Homo sapiens). The data set is described as follows: filter binding. As to conditions: Filter binding: 10 mM HEPES pH 7.5, 4 mM KCl, 0.02 mg/mL BSA, 0.2 mM DTT, 30 min RT, TyrRS 125 nM to 8 uM, wash 60 mM HEPES pH 7.5, 10 mM MgCl2; EMSA …. (In general: Mobility shift assays separate free from complexed probe on a gel.)
Data set [1] relates to TyrRS K244Q (Homo sapiens). Put plainly: filter binding. As to conditions: Filter binding: 10 mM HEPES pH 7.5, 4 mM KCl, 0.02 mg/mL BSA, 0.2 mM DTT, 30 min RT, TyrRS 125 nM to 8 uM, wash 60 mM HEPES pH 7.5, 10 mM MgCl2; EMSA ….

As a reminder, the Kd is the equilibrium constant for the complex coming apart. A higher Kd goes with weaker binding. human tRNATyr transcript: the equilibrium dissociation constant (Kd) in the data set with TyrRS WT (Homo sapiens) was 849 nM; in data set [1], 1180 nM.
